Test results reported in article doi:10.1101/393223, “Structures of the substrate-engaged 26S proteasome reveal the mechanisms for ATP hydrolysis-driven translocation” (bioRxiv, 2018).

Molecular target: T1, Rpn11 (3XFLAG-tagged, in the 26S proteasome) (S. cerevisiae, UniProt P43588 1-306)
T1 construct: Rpn11, Zn2+-dependent deubiquitinase of the lid, S. cerevisiae; strain YYS40 RPN11::RPN11-3XFLAG; the catalytic Zn2+ is not visible in the structure; also called Rpn11 deubiquitinase; source: purified from S. cerevisiae strain YYS40 as part of the 26S proteasome (anti-FLAG, SEC)
Assay: cryo-EM structure; 26S proteasome (20 μM; 20 mM HEPES pH 7.6, 25 mM NaCl, 25 mM KCl, 10 mM MgCl2, 1 mM TCEP, 5 mM ATP, 0.05% NP-40, ATP regeneration system, 6 mM ortho-phenanthroline) mixed with an equal volume of 50 μM ubiquitinated model substrate and vitrified at once; single-particle analysis gave four substrate-engaged states (1D*, 5D, 5T, 4D)
Settings: both partners purified

B1: ubiquitin (S. cerevisiae), the most proximal, substrate-attached moiety of the poly-ubiquitin chain (natural protein)
chain: not shown
modifications: C-terminus in an isopeptide bond with the substrate lysine; part of a K63-linked ubiquitin chain
notes: ubiquitin, S. cerevisiae; cut product of the ubiquitin precursors; Modeled at the Rpn11 active site in the 4D state with PDB 5U4P as template; also called ubiquitin moiety
- binding result: binds
